Source: patent US20200347130A1 (JIANGSU HENGRUI MEDICINE, published 2020)

What was measured:
[1] = molecular target: T1, CD96 epitope peptide #4 (62-81) (human); assay: peptide ELISA ('-' indicates no binding, table note)
T1 peptide: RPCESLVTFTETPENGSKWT
Procedure: (§1) The epitopes recognized by anti-CD96 antibody were detected by the assay of binding the antibody to different polypeptide fragments of CD96 protein. The fragments of different polypeptides of the CD96 antigen were coated on the microtiter plate. The signal density after the antibody was added was used to judge the binding activity of the antibody and the polypeptide. The specific experimental method is as follows:
(§2) The polypeptides were diluted to a concentration of 20 μg/ml with PBS buffer (Shanghai Yuanpei Biotechnology Co., Ltd. Cat No. B320), pH 7.4, added to a 96-well microtiter plate (Corning, Cat No. CLS3590-100EA) at a volume of 50 μl/well, and coated at 4° C. overnight. After discarding the liquid, 250 μl/well of 5% skim milk (BD skim milk, Cat No. 232100) blocking solution diluted with PBS was added, and the plate was incubated in an incubator at 37° C. for 3 hours. After blocking, the blocking solution was discarded, and the plate was washed 5 times with PBST buffer (pH 7.4 PBS containing 0.05% tween-20). 50 μl/well of different concentrations of the antibodies to be tested (hybridoma purification antibody or humanized antibody) diluted with sample dilution was added, and the plate was incubated in an incubator at 37° C. for 2 hours. […] After washing the plate 5 times with PBST, 50 μl/well of TMB chromogenic substrate (KPL, Cat No. 52-00-03) was added, the plate was incubated at room temperature for 5-15 min, followed by adding 50 μl/well of 1M H₂SO₄ to stop the reaction. The absorption value was read at 450 nm with a microplate reader (Thermo Scientific MuLtiskan MK3), and the epitopes that CD96 antibody can recognize were analyzed.

[2] = molecular target: T2, CD96 epitope peptide #9 (137-156) (human); assay: as above
T2 peptide: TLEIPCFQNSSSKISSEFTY
Procedure: as §1, §2

[3] = molecular target: T3, CD96 epitope peptide #10 (149-170) (human); assay: as above
T3 peptide: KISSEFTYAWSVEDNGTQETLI
Procedure: as §1, §2

[4] = molecular target: T4, CD96 epitope peptide #18 (265-284) (human); assay: as above
T4 peptide: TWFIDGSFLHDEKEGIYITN
Procedure: as §1, §2

[5] = molecular target: T5, CD96 epitope peptide #21 (310-329) (human); assay: as above
T5 peptide: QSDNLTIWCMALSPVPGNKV
Procedure: as §1, §2

[6] = molecular target: T6, Biotinylated CD96 antigen (human, UniProt P40200-2 22-503, limits assumed, biotinylated); assay: competition ELISA, antibody B premixed with biotinylated CD96; competitor (coated antibody A): ch1720
T6 sequence (looked up): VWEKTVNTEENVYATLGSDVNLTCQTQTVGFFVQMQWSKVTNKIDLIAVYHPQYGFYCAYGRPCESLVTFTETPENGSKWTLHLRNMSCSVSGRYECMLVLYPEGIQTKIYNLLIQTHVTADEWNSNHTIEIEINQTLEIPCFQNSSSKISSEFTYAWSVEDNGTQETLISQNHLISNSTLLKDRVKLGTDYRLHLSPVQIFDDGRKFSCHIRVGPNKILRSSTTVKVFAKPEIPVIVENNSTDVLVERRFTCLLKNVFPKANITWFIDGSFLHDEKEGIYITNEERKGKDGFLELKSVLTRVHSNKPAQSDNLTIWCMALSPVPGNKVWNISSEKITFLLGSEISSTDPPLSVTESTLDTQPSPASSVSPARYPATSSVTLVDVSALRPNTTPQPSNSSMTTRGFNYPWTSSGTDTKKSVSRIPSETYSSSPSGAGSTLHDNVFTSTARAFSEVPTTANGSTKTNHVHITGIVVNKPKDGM
Procedure: (§3) Competitive assays of different antibodies binding to CD96 protein were used to classify binding epitopes of the antibodies. The specific experimental methods are as follows:
(§4) Antibody A was diluted to a concentration of 2 μg/ml with PBS buffer (Shanghai Yuanpei Biotechnology Co., Ltd. Cat No. B320), pH 7.4, added to a 96-well microtiter plate (Corning, Cat No. CLS3590-100EA) at a volume of 50 μl/well, and coated at 4° C. overnight. After discarding the liquid, 250 μl/well of 5% skim milk (BD skim milk, Cat No. 232100) blocking solution diluted with PBS was added, and the plate was incubated at 37° C. for 3 hours. After blocking, the blocking solution was discarded, and the plate was washed 5 times with PBST buffer (pH 7.4 PBS containing 0.05% tween-20) and stored for later use. Antibody B was diluted to 40 μg/ml and 8 μg/ml with 1% BSA, and Biotinylated CD96 antigen was simultaneously diluted to 4 μg/mL. Subsequently, antibody B and antigen were mixed in a 1:1 volume ratio, pre-incubated at 37° C. for 45 minutes, added into the enzyme plate coated with antibody A, thus incubating the plate in an incubator at 37° C. for 1.5 hours. After incubation, the plate was washed for 5 times with PBST, and 50 μl/well of HRP-labeled streptavidin (Sigma, Cat No. 52438) diluted with sample dilution was added, followed by incubating the plate at 37° C. for 1 hour. After washing the plate 5 times with PBST, 50 μl/well of TMB chromogenic substrate (KPL, Cat No. 52-00-03) was added for color development, followed by adding 50 μl/well of 1M H₂SO₄ to stop the reaction. The absorption value was read at 450 nm with a NOVOStar microplate reader, and the OD value was used to determine whether A and B CD96 antibodies compete with each other. Antibodies that compete with each other fall into the same class of antibodies, otherwise belong to different classes of antibodies (see FIG. 3 and Table 18).

[7] = molecular target: T6, Biotinylated CD96 antigen; assay: competition ELISA, antibody B premixed with biotinylated CD96; competitor (coated antibody A): h1718-012
Procedure: as §3, §4

[8] = molecular target: T6, Biotinylated CD96 antigen; assay: competition ELISA, antibody B premixed with biotinylated CD96; competitor (coated antibody A): h1719-014
Procedure: as §3, §4

[9] = molecular target: T6, Biotinylated CD96 antigen; assay: competition ELISA, antibody B premixed with biotinylated CD96; competitor (coated antibody A): h1722-010
Procedure: as §3, §4

[10] = molecular target: T6, Biotinylated CD96 antigen; assay: competition ELISA: antibody B pre-incubated with biotinylated CD96 antigen, added to a plate coated with antibody A, HRP-streptavidin, OD450; competitor: coated ch1720
Procedure: as §3, §4

| Binder | binding result [1] | binding result [2] | binding result [3] | binding result [4] | binding result [5] | competition (percent) [6] | competition (percent) [7] | competition (percent) [8] | competition (percent) [9] | IC50 (read off the curve) [10] |
| --- | --- | --- | --- | --- | --- | --- | --- | --- | --- | --- |
| h1718-012 (antibody, V domains shown, Only variable regions are tied to this name) VH: EVQLVQSGAEVKKPGASVKVSCKASGYTITDYNMNWVRQAPGQRLEWIGVINPSYGITDYNQNFKDRVTITVDTSASTAYMELSSLRSEDTAVYYCAIQLRLPGYFDVWGQGTTVTVSS VL: DIQMTQSPSSLSASVGDRVTITCKASQDINQYLNWFQQKPGKAPKTLIYRANRLVDGVPSRFSGSGSGQDYTLTISSLQPEDFATYYCLKYDEFPYTFGGGTKVEIK |  |  |  |  |  | 103% | 100% | 94.8% | -11.1% | ~0.5 nM |
| h1721-003 (antibody, V domains shown, Only variable regions are tied to this name; also called M721-003) VH: EVTLKESGPVLVKPTETLTLTCTVSGFSLSSYGVNWIRQPPGKALEWLGVIWGDGSTNYHSALISRLTISKDTSKSQVVLTLTNMDPVDTATYYCAKNYFYGSRYGYAMDSWGQGTTVTVSS VL: DIQMTQSPSSLSASVGDRVTITCRASENIYSSLAWYQQKPGKAPKLLIYNAKTLIEGVPSRFSGSGSGTDFTLTISSLQPEDFATYYCQHHYGTPYTFGGGTKVEIK |  |  |  |  |  | 92.6% | 73.6% | 96% | -0.3% | ~0.4 nM |
| h1719-010 (antibody, V domains shown, Only variable regions are tied to this name) VH: EVTLKESGPVLVKPTETLTLTCTVSGFSLSSYGVSWVRQPPGKGLEWLGVIWGDGNTNYHSVLISRLTISKDTSKSQVVLTLTNMDPVDTATYYCAKQNYYGSRYGYPIDYWGQGTTVTVSS VL: DIQMTQSPSSVSASVGDRVTITCKATQDVGTAVAWYQQKPGKAPKLLIYWASTRHTGVPSRFSGSGSGTDFTLTISSLQPEDFATYYCQQYGSSVLTFGGGTKVEIK |  |  |  |  |  |  |  |  |  | ~0.5 nM |
| h1719-014 (antibody, V domains shown, Only variable regions are tied to this name; also called M719-014) VH: EVTLKESGPVLVKPTETLTLTCTVSGFSLSSYGVSWVRQPPGKGLEWLGVIWGDGNTNYHSVLISRLTISKDTSKSQVVLTLTNMDPVDTATYYCAKNYYYGSRYGYPLDYWGQGTTVTVSS VL: DIQMTQSPSSVSASVGDRVTITCKATQDVGTAVAWYQQKPGKSPKLLIYWASTRHTGVPERFSGSGSGTDFTLTISSLQPEDFATYFCQQYGSSVLTFGGGTKVEIK |  |  |  |  |  | 67.7% | 44.3% | 100% | 28.6% |  |
| h1722-010 (antibody, V domains shown, Only variable regions are tied to this name; also called M722-010) VH: EVQLVQSGAEVKKPGSSVKVSCKASGGTFSDYWMHWVRQAPGQGLEWIGMLHPNSGTTSFNEKFKIRVTITADKSTSTAYMELSSLRSEDTAVYYCASDYSGPFAYWGQGTLVTVSS VL: DIQLTQSPSSLSASVGDRVTITCSASSSVNYIHWYQQKPGKAPKRWIFDTSKLASGVPSRFSGSGSGTDYTLTISSLQPEDFATYYCQQWRSNPLTFGQGTKLEIK |  |  |  |  |  | -11.5% | -3.5% | 8.5% | 100% |  |

Next, values leading:

| binding result [1] | binding result [2] | binding result [3] | binding result [4] | binding result [5] | competition (percent) [6] | competition (percent) [7] | competition (percent) [8] | competition (percent) [9] | IC50 (read off the curve) [10] | Binder |
| --- | --- | --- | --- | --- | --- | --- | --- | --- | --- | --- |
| no binding | no binding | no binding | no binding | no binding | 100% | 94.4% | 92.3% | -2.4% |  | ch1720 (antibody, human IgG4 S228P, kappa, V domains shown, also called chimeric antibody corresponding to m1720) VH: EFQLQQSGPELVKPGASVKISCKASAYSLTDYNMNWVKQSNGKSLEWIGVINPSYGISSYNQKFKGKATLTVDQSSSTAYMHLNSLTSEDSAVYYCARQLRLPGYFDVWGTGTTVTVSS VL: DIKMTQSPSSKNASLGERVTITCKASQDINSYLNWFQQKPGKSPKTLIYRASRLVDGVPSRFSGSGSGQDYSLTISSLEYEDMGIYYCLKYDEFPYTFGGGTKLEIKR |
| no binding | no binding | no binding | no binding | no binding |  |  |  |  |  | ch1719 (antibody, human IgG4 S228P, kappa, V domains shown, also called chimeric antibody corresponding to m1719) VH: QVQLKESGPGLVAPSQSLSITCTVSGFSLISYGVSWVRQPPGKGLEWLGVIWGDGNTNYHSVLISRLSIRKDDSKSQVFLKLNSLQTDDTATYYCAKNNYYGSRYGYPMDYWGQGTSVTVSS VL: DIVMTQSHKFMSTSVGDRVSITCKATQDVGTAVAWYQQKPGHSPKLLIYWASTRHTGVPERFTGSGSGTDFTLTIDNVQSEDLADYFCQQYGSSVLTFGAGTKVELRR |
| no binding | no binding | no binding | no binding | no binding |  |  |  |  |  | ch1721 (antibody, human IgG4 S228P, kappa, V domains shown, also called chimeric antibody corresponding to m1721) VH: QVQLKESGPGLVAPSQSLSITCTVSGFSLISYGVNWVRQPPGKGLEWLGVIWGDGSTNYHSALISRLSISKDDSKSQVFLNLNSLQTDDTATYYCAKNYFYGSRYGYAMDSWGQGISVTVSS VL: DIQMTQSPASLSAAVGETVTITCRASENIYSSLAWYQQKQGKSPQLLVYNAKTLIETVASRFSGSGSGTQYSLKINSLQPEDFGSFYCQHHYGTPYTFGGGTKLEIKR |
